Assay results from FireProtDB (doi:10.1006/jmbi.1995.0616).

B1: Subtilisin-chymotrypsin inhibitor-2A, P01053 (parent)
chain: MSSVEKKPEGVNTGAGDRHNLKTEWPELVGKSVEEAKKVILQDKPEAQIIVLPVGTIVTMEYRIDRVRLFVDKLDNIAQVPRVG

Variants of: B1
Conditions: Hordeum vulgare; pH 6.25; 25 °C; GdnHCl; Fluorescence; MES 50 mM; reversible: yes; structure 2CI2; whole UniProt chain shown

| Variant | ddG of mutation (higher = less stable) | denaturant m value | denaturant midpoint (higher = more stable) | unfolding free energy |
| --- | --- | --- | --- | --- |
| MSSVEKKPEGVNTGAGDRHNLATEWPELVGKSVEEAKKVILQDKPEAQIIVLPVGTIVTMEYRIDRVRLFVDKLDNIAQVPRVG | 1.04 kcal/mol | 1.77 kcal/mol/M | 3.72 M | 6.56 kcal/mol |
| MSSVEKKPEGVNTGAGDRHNLATEWPALVGKSVEEAKKVILQDKPEAQIIVLPVGTIVTMEYRIDRVRLFVDKLDNIAQVPRVG | 1.17 kcal/mol | 1.87 kcal/mol/M | 3.43 M | 6.43 kcal/mol |
| MSSVEKKPEGVNTGAGDRHNLKTEWAELVGKSVEEGKKVILQDKPEAQIIVLPVGTIVTMEYRIDRVRLFVDKLDNIAQVPRVG | 1.3 kcal/mol | 2.39 kcal/mol/M | 2.64 M | 6.3 kcal/mol |
| MSSVEKKPEGVNTGAGDRHNLKTEWPALVGKSVEEAKKVILQDKPEAQIIVLPVGTIVTMEYRIDRVRLFVDKLDNIAQVPRVG | 1.03 kcal/mol | 1.75 kcal/mol/M | 3.76 M | 6.57 kcal/mol |
| MSSVEKKPEGVNTGAGDRHNLKTEWPQLVGKSVEEAKKVILQDKPEAQIIVLPVGTIVTMEYRIDRVRLFVDKLDNIAQVPRVG | 0.57 kcal/mol | 1.91 kcal/mol/M | 3.68 M | 7.03 kcal/mol |
| MSSVEKKPEGVNTGAGDRHNLKTEWPELVGASVEEAKKVILQDKPEAQIIVLPVGTIVTMEYRIDRVRLFVDKLDNIAQVPRVG | 1.2 kcal/mol | 1.52 kcal/mol/M | 4.22 M | 6.4 kcal/mol |
| MSSVEKKPEGVNTGAGDRHNLKTEWPELVGKAVEEAKKVILQDKPEAQIIVLPVGTIVTMEYRIDRVRLFVDKLDNIAQVPRVG | 1.02 kcal/mol | 1.86 kcal/mol/M | 3.54 M | 6.58 kcal/mol |
| MSSVEKKPEGVNTGAGDRHNLKTEWPELVGKAVAAAKKVILQDKPEAQIIVLPVGTIVTMEYRIDRVRLFVDKLDNIAQVPRVG | 0.75 kcal/mol | 2.18 kcal/mol/M | 3.14 M | 6.85 kcal/mol |
| MSSVEKKPEGVNTGAGDRHNLKTEWPELVGKGVEEAKKVILQDKPEAQIIVLPVGTIVTMEYRIDRVRLFVDKLDNIAQVPRVG | 0.06 kcal/mol | 2.1 kcal/mol/M | 3.59 M | 7.54 kcal/mol |
| MSSVEKKPEGVNTGAGDRHNLKTEWPELVGKGVAAAKKVILQDKPEAQIIVLPVGTIVTMEYRIDRVRLFVDKLDNIAQVPRVG | 0.81 kcal/mol | 2.15 kcal/mol/M | 3.16 M | 6.79 kcal/mol |
| MSSVEKKPEGVNTGAGDRHNLKTEWPELVGKSVAAAKKVILQDKPEAQIIVLPVGTIVTMEYRIDRVRLFVDKLDNIAQVPRVG | -0.02 kcal/mol | 2.11 kcal/mol/M | 3.61 M | 7.62 kcal/mol |
| MSSVEKKPEGVNTGAGDRHNLKTEWPELVGKSVDEAKKVILQDKPEAQIIVLPVGTIVTMEYRIDRVRLFVDKLDNIAQVPRVG | 0.77 kcal/mol | 1.83 kcal/mol/M | 3.73 M | 6.83 kcal/mol |
| MSSVEKKPEGVNTGAGDRHNLKTEWPELVGKSVNEAKKVILQDKPEAQIIVLPVGTIVTMEYRIDRVRLFVDKLDNIAQVPRVG | 0.28 kcal/mol | 2.01 kcal/mol/M | 3.64 M | 7.32 kcal/mol |
| MSSVEKKPEGVNTGAGDRHNLKTEWPELVGKSVQEAKKVILQDKPEAQIIVLPVGTIVTMEYRIDRVRLFVDKLDNIAQVPRVG | 0.4 kcal/mol | 1.87 kcal/mol/M | 3.85 M | 7.2 kcal/mol |
| MSSVEKKPEGVNTGAGDRHNLKTEWPELVGKSVEDAKKVILQDKPEAQIIVLPVGTIVTMEYRIDRVRLFVDKLDNIAQVPRVG | -0.36 kcal/mol | 2.2 kcal/mol/M | 3.62 M | 7.96 kcal/mol |
| MSSVEKKPEGVNTGAGDRHNLKTEWPELVGKSVENAKKVILQDKPEAQIIVLPVGTIVTMEYRIDRVRLFVDKLDNIAQVPRVG | 0.08 kcal/mol | 2.18 kcal/mol/M | 3.45 M | 7.52 kcal/mol |
| MSSVEKKPEGVNTGAGDRHNLKTEWPELVGKSVEQAKKVILQDKPEAQIIVLPVGTIVTMEYRIDRVRLFVDKLDNIAQVPRVG | 0.68 kcal/mol | 1.84 kcal/mol/M | 3.76 M | 6.92 kcal/mol |
| MSSVEKKPEGVNTGAGDRHNLKTEWPELVGKSVEEGKKVILQDKPEAQIIVLPVGTIVTMEYRIDRVRLFVDKLDNIAQVPRVG | 1.41 kcal/mol | 1.8 kcal/mol/M | 3.44 M | 6.19 kcal/mol |
| MSSVEKKPEGVNTGAGDRHNLKTEWPELVGKSVEEAAKVILQDKPEAQIIVLPVGTIVTMEYRIDRVRLFVDKLDNIAQVPRVG | 1.13 kcal/mol | 1.73 kcal/mol/M | 3.75 M | 6.47 kcal/mol |
| MSSVEKKPEGVNTGAGDRHNLKTEWPELVGKSVEEAGKVILQDKPEAQIIVLPVGTIVTMEYRIDRVRLFVDKLDNIAQVPRVG | 2.01 kcal/mol | 1.99 kcal/mol/M | 2.8 M | 5.59 kcal/mol |
| MSSVEKKPEGVNTGAGDRHNLKTEWPELVGKSVEEAKAVILQDKPEAQIIVLPVGTIVTMEYRIDRVRLFVDKLDNIAQVPRVG | 0.99 kcal/mol | 1.61 kcal/mol/M | 4.11 M | 6.61 kcal/mol |
| MSSVEKKPEGVNTGAGDRHNLKTEWPELVGKSVEEAKGVILQDKPEAQIIVLPVGTIVTMEYRIDRVRLFVDKLDNIAQVPRVG | 1.58 kcal/mol | 1.73 kcal/mol/M | 3.49 M | 6.02 kcal/mol |
| MSSVEKKPEGVNTGAGDRHNLKTEWPELVGKSVEEAKKAILQDKPEAQIIVLPVGTIVTMEYRIDRVRLFVDKLDNIAQVPRVG | 0.06 kcal/mol | 2.01 kcal/mol/M | 3.75 M | 7.54 kcal/mol |
| MSSVEKKPEGVNTGAGDRHNLKTEWPELVGKSVEEAKKVVLQDKPEAQIIVLPVGTIVTMEYRIDRVRLFVDKLDNIAQVPRVG | 0.97 kcal/mol | 1.99 kcal/mol/M | 3.33 M | 6.63 kcal/mol |
| MSSVEKKPEGVNTGAGDRHNLKTEWPELVGKSVEEAKKVIAQDKPEAQIIVLPVGTIVTMEYRIDRVRLFVDKLDNIAQVPRVG | 1.21 kcal/mol | 1.93 kcal/mol/M | 3.32 M | 6.39 kcal/mol |
| MSSVEKKPEGVNTGAGDRHNLKTEWPELVGKSVEEAKKVIGQDKPEAQIIVLPVGTIVTMEYRIDRVRLFVDKLDNIAQVPRVG | 2.09 kcal/mol | 1.68 kcal/mol/M | 3.29 M | 5.51 kcal/mol |
